Experimental findings from PMC3683929 are described below.

Data set [1] concerns the target T1, MBP-hnRNP A1 (mouse, UniProt P49312 1-320). As to the kind of experiment: FP/EMSA. A general note: Mobility shift assays separate free from complexed probe on a gel.
In data set [2] the target is T1, MBP-hnRNP A1. The experiment in a line: fluorescence polarization. (In general: Fluorescence polarisation rises when a labelled molecule tumbles more slowly, as on binding a larger partner.)
Data set [3] concerns the target T1, MBP-hnRNP A1. As to the kind of experiment: EMSA.

As a reminder, the Kd is the concentration at which binding is half-saturated. A high value points to weaker binding.

T1 sequence (P49312 whole entry): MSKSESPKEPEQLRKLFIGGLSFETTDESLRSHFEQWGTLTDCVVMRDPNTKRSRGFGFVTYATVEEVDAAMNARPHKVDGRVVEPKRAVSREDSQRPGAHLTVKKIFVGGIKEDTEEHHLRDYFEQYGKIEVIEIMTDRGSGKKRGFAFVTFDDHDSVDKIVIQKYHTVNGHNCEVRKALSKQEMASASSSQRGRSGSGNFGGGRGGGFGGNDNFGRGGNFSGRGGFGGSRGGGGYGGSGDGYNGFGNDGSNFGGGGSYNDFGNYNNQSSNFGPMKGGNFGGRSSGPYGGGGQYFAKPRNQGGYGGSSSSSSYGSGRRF

For GAGCCCCAGGAGGUAGGUUCCGGGGGCCU (structured_RNA) [Mag exon 12 5'ss rat wt 29 nt (-12 to 17)], the binding result in data set [1] is “no binding”.

As for GGAGGUAGGUUUCGG (structured_RNA) [Mag 15 nt U7U8 (U8U9 in Table 1)], the dissociation constant Kd in data set [2] came out at 0.092 ± 0.037 µM; in data set [3], 0.171 ± 0.048 µM. GGAGGUAGGUAACGG (structured_RNA) [Mag 15 nt A7A8 (A8A9 in Table 1)]: the equilibrium dissociation constant (Kd) in data set [2] came out at 0.021 ± 0.004 µM; in data set [3], 0.106 ± 0.023 µM. Regarding AGGUAGGUUC (ssRNA) [Mag 10 nt wt (-2 to 8)], in data set [3], binding was characterised by a dissociation constant (Kd) of 0.145 ± 0.012 µM. Consider GGAGGUAGGUGGCGG (structured_RNA) [Mag 15 nt G7G8 (G8G9 in Table 1)], for which the dissociation constant Kd is 0.06 ± 0.018 µM in data set [2] and 0.07 ± 0.021 µM in data set [3]. For the molecule AGGUAAGUUC (ssRNA) [Mag 10 nt G4A], the binding result in data set [3] is on record as “no binding”.
